Reference: the supplement of paper PMC9112550, “Optimization of the antimicrobial peptide Bac7 by deep mutational scanning” (BMC Biology, 2022)

Tested on: Escherichia coli TOP10
Assay: shrunken log2 fold change of peptide-encoding DNA abundance (4.5 h post-induction vs induction); higher = less antimicrobial activity (less host growth inhibition)
Conditions: time post-induction: 4.5 h; library: site-saturation at positions 5, 18, 19, 20
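Further: peptides expressed intracellularly from a pBAD plasmid library in pooled LB shake-flask culture, induced with 0.3% L-arabinose, DNA abundance read by NGS, three biological replicates, DESeq2 with apeglm shrinkage.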

RRIRNRPPRLPRPRPRPGFLPRP
shrunken log2 fold change: -0.105

RRIRERPPRLPRPRPRPATNPRP
shrunken log2 fold change: -0.386

RRIRERPPRLPRPRPRPRNMPRP
shrunken log2 fold change: -0.228

RRIRPRPPRLPRPRPRPVFIPRP
shrunken log2 fold change: -0.235

RRIRNRPPRLPRPRPRPSGNPRP
shrunken log2 fold change: -0.315

RRIRGRPPRLPRPRPRPWSYPRP
shrunken log2 fold change: -0.157

RRIRNRPPRLPRPRPRPTCYPRP
shrunken log2 fold change: -0.226

RRIRGRPPRLPRPRPRPSVCPRP
shrunken log2 fold change: 0.159

RRIRTRPPRLPRPRPRPHPCPRP
shrunken log2 fold change: -0.339

RRIRYRPPRLPRPRPRPWNPPRP
shrunken log2 fold change: -0.00498

RRIRYRPPRLPRPRPRPGPDPRP
shrunken log2 fold change: 0.184

RRIRLRPPRLPRPRPRPNFKPRP
shrunken log2 fold change: -0.206

RRIRWRPPRLPRPRPRPMKMPRP
shrunken log2 fold change: -0.0851

RRIRERPPRLPRPRPRPSMPPRP
shrunken log2 fold change: -0.484

RRIRPRPPRLPRPRPRPFPNPRP
shrunken log2 fold change: -0.0765

RRIRMRPPRLPRPRPRPMYFPRP
shrunken log2 fold change: 0.178

RRIRARPPRLPRPRPRPKTQPRP
shrunken log2 fold change: 0.0119

RRIRHRPPRLPRPRPRPHTSPRP
shrunken log2 fold change: -0.0988

RRIRTRPPRLPRPRPRPDRYPRP
shrunken log2 fold change: 0.04

RRIRMRPPRLPRPRPRPKAWPRP
shrunken log2 fold change: 0.0535

RRIRIRPPRLPRPRPRPLPHPRP
shrunken log2 fold change: -0.0305

RRIRLRPPRLPRPRPRPQYIPRP
shrunken log2 fold change: -0.189

RRIRNRPPRLPRPRPRPPFIPRP
shrunken log2 fold change: -0.551

RRIRPRPPRLPRPRPRPFLQPRP
shrunken log2 fold change: -0.207

RRIRQRPPRLPRPRPRPRNEPRP
shrunken log2 fold change: -0.199

RRIRIRPPRLPRPRPRPGHAPRP
shrunken log2 fold change: -0.0343

RRIRWRPPRLPRPRPRPVFFPRP
shrunken log2 fold change: 0.238

RRIRIRPPRLPRPRPRPFCCPRP
shrunken log2 fold change: -0.205

RRIRRRPPRLPRPRPRPQSYPRP
shrunken log2 fold change: -0.0292

RRIRPRPPRLPRPRPRPHNRPRP
shrunken log2 fold change: -0.0456

RRIRFRPPRLPRPRPRPEWDPRP
shrunken log2 fold change: 0.168

RRIRFRPPRLPRPRPRPNYCPRP
shrunken log2 fold change: -0.499

RRIRKRPPRLPRPRPRPDQTPRP
shrunken log2 fold change: -0.0185

RRIRYRPPRLPRPRPRPKTNPRP
shrunken log2 fold change: -0.516

RRIRFRPPRLPRPRPRPTQGPRP
shrunken log2 fold change: 0.215

RRIRWRPPRLPRPRPRPPCHPRP
shrunken log2 fold change: 0.0912

RRIRARPPRLPRPRPRPSIWPRP
shrunken log2 fold change: 0.352

RRIRGRPPRLPRPRPRPYIVPRP
shrunken log2 fold change: 0.0237

RRIRDRPPRLPRPRPRPVCDPRP
shrunken log2 fold change: 0.696

RRIRKRPPRLPRPRPRPAKNPRP
shrunken log2 fold change: 0.487

RRIRVRPPRLPRPRPRPHSEPRP
shrunken log2 fold change: -0.392

RRIRPRPPRLPRPRPRPVFQPRP
shrunken log2 fold change: 0.315

RRIRHRPPRLPRPRPRPPLSPRP
shrunken log2 fold change: -0.0738

RRIRRRPPRLPRPRPRPSAEPRP
shrunken log2 fold change: 0.716

RRIRYRPPRLPRPRPRPNTTPRP
shrunken log2 fold change: -0.114

RRIRKRPPRLPRPRPRPYYCPRP
shrunken log2 fold change: 0.32

RRIRMRPPRLPRPRPRPARSPRP
shrunken log2 fold change: 1.05

RRIRVRPPRLPRPRPRPCRAPRP
shrunken log2 fold change: 0.0373

RRIRQRPPRLPRPRPRPVVKPRP
shrunken log2 fold change: -0.031

RRIRYRPPRLPRPRPRPDPTPRP
shrunken log2 fold change: -0.435
